Test results as given in US10562947B2, “Compositions and methods for preventing or treating diseases, conditions or processes characterized by aberrant fibroblast proliferation and extracellular matrix deposition” (MOERAE MATRIX, INC., priority 2011, dated 2020).

Assays:
Assay in all cases: Kinase Profiling Assay
Type in all cases: biochemical
Settings in all cases: 100 μM peptide
GCK(h) = biological target: T1, GCK(h) (Homo sapiens, UniProt Q12851)
T1 construct: purchased Millipore
T1 sequence (Q12851 1-820): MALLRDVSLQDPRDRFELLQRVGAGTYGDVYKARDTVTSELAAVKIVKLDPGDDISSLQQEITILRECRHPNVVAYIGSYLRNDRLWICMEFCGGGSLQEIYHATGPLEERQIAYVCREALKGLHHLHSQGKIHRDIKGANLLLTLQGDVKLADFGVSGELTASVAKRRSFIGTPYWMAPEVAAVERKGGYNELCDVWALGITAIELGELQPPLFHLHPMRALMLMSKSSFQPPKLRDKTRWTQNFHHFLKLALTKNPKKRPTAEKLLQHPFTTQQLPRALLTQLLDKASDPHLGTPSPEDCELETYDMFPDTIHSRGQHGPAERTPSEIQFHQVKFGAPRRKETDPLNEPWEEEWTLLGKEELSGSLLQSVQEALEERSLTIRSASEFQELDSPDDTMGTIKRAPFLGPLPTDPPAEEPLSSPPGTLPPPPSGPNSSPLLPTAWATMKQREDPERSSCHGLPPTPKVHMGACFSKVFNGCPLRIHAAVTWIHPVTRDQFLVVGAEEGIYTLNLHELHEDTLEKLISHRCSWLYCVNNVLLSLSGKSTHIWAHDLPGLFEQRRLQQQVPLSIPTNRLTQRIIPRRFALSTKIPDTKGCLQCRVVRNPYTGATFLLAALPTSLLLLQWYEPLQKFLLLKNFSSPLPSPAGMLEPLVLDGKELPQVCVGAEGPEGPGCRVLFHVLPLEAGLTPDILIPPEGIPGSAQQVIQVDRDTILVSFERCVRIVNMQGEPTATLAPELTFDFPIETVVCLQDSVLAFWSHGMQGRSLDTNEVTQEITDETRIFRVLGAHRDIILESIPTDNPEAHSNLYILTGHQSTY
Description: (§1) Every kinase activity measurement was conducted in duplicate.
(§2) In addition to determining the IC50 of the compound, the specificity of MK2 inhibitory peptides was assessed by examining activities of all 266 human kinases available for testing in the Millipore kinase profiling service (Table 1).

Abl(h) = Abl(h) (Homo sapiens, UniProt P00519)
Description: as §1, §2

SAPK2b(h) = SAPK2b(h) (Homo sapiens, UniProt Q15759)
Chain of SAPK2b(h) (Q15759 whole entry): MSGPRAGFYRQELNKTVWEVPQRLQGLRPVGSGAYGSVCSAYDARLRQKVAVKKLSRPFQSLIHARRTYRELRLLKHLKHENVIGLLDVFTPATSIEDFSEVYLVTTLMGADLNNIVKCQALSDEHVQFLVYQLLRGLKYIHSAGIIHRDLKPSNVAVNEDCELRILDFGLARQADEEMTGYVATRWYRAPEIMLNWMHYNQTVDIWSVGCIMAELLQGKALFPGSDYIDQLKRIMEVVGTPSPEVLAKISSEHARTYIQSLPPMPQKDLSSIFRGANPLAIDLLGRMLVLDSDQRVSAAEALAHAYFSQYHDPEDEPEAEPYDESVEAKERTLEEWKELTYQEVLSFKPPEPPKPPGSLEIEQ
Description: as §1, §2

EphB2(h) = biological target: T2, EphB2(h) (Homo sapiens, UniProt P29323)
T2 sequence (P29323 19-1055): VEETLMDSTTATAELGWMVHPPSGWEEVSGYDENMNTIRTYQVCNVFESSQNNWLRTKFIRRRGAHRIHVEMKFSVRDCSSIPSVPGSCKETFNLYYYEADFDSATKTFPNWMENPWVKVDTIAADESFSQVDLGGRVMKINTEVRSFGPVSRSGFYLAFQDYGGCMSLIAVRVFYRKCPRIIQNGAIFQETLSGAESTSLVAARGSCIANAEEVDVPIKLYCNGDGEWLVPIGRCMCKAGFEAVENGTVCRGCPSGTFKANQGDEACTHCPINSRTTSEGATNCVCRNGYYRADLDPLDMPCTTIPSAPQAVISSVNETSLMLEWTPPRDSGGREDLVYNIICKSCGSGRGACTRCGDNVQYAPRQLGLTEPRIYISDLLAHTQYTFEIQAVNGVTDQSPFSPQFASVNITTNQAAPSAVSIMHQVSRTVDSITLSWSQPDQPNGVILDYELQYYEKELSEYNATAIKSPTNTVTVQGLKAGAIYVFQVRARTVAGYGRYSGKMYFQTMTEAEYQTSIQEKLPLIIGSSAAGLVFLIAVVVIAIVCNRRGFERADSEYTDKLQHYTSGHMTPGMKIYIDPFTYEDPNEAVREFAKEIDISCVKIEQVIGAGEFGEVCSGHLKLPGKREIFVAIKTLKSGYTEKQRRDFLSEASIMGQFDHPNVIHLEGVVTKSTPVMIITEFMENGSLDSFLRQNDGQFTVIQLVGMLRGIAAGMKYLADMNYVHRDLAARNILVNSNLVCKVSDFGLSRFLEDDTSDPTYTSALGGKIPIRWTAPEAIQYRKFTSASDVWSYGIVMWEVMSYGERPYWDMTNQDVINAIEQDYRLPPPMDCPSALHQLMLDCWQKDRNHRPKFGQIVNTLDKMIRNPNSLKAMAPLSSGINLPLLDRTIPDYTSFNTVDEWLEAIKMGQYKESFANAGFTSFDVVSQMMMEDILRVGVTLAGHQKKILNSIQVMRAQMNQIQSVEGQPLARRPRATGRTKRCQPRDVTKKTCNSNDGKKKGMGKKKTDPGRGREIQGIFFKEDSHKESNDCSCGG
Description: as §1, §2

CDK3/cyclinE(h) = CDK3/cyclinE(h) (Homo sapiens, UniProt Q00526)
Chain of CDK3/cyclinE(h) (Q00526 whole entry): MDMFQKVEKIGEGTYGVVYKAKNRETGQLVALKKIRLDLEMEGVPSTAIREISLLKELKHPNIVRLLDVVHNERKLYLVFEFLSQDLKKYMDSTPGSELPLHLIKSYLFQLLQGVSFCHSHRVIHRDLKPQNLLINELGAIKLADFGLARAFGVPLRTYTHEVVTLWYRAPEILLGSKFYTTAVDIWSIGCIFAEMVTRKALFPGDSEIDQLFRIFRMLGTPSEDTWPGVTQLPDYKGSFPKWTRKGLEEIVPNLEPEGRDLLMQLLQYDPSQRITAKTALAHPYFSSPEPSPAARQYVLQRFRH
Chain of CDK3/cyclinE(h) (P24864 whole entry partner): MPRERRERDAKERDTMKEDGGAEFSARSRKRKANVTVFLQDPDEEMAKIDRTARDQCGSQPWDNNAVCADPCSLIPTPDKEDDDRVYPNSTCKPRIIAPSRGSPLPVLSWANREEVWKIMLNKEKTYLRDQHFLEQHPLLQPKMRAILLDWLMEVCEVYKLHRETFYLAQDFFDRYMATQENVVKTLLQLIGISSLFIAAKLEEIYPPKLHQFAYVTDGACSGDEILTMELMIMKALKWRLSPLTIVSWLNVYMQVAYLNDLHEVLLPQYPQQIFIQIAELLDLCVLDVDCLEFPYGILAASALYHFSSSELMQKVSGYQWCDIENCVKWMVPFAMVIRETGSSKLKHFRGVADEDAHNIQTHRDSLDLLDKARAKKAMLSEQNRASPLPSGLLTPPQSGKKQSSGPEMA
Description: as §1, §2

LIMK1(h) = LIMK1(h) (Homo sapiens, UniProt P53667)
Chain of LIMK1(h) (P53667 whole entry): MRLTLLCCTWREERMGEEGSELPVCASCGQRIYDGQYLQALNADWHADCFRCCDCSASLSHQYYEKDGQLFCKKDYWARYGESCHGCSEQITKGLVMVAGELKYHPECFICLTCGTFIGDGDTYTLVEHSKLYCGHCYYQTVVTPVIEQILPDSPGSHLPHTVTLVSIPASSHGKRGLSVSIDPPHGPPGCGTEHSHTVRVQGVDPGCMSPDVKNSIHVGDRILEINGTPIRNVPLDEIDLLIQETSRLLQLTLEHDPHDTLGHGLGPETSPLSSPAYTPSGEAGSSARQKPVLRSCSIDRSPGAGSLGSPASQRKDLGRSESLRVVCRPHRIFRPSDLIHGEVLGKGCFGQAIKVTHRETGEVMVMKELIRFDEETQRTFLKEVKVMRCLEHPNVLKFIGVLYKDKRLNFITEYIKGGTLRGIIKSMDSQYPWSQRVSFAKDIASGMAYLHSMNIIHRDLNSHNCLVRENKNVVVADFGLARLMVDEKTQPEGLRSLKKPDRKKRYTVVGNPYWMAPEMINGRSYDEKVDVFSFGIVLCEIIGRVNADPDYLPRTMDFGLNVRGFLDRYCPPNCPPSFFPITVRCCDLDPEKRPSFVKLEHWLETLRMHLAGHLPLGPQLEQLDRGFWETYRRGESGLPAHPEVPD
Description: as §1, §2

GSK3β(h) = biological target: T3, GSK3β(h) (Homo sapiens, UniProt P49841)
T3 construct: purchased Millipore
T3 sequence (P49841 whole entry): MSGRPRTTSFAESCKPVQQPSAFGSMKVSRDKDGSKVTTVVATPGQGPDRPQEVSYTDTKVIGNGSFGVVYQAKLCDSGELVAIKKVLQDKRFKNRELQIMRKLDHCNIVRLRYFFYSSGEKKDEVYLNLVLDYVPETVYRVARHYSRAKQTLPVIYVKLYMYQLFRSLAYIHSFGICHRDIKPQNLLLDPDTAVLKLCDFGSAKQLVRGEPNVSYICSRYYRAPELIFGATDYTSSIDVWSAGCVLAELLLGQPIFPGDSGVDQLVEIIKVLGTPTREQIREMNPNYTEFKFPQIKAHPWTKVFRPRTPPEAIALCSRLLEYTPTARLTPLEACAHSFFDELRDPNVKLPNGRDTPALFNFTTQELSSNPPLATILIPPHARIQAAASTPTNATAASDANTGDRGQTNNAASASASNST
Description: as §1, §2

CDK9/cyclin T1(h) = CDK9/cyclin T1(h) (Homo sapiens, UniProt P50750)
Chain of CDK9/cyclin T1(h) (P50750 whole entry): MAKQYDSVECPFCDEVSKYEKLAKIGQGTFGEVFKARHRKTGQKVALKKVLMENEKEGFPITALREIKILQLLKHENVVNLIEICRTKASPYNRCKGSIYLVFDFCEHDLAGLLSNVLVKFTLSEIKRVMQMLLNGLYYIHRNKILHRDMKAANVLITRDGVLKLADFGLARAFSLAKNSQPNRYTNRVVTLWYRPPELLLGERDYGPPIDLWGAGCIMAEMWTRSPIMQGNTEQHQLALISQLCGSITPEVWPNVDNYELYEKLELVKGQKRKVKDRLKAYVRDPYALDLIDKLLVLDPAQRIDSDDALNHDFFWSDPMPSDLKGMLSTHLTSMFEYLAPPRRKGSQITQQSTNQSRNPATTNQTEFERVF
Chain of CDK9/cyclin T1(h) (O60563 whole entry partner): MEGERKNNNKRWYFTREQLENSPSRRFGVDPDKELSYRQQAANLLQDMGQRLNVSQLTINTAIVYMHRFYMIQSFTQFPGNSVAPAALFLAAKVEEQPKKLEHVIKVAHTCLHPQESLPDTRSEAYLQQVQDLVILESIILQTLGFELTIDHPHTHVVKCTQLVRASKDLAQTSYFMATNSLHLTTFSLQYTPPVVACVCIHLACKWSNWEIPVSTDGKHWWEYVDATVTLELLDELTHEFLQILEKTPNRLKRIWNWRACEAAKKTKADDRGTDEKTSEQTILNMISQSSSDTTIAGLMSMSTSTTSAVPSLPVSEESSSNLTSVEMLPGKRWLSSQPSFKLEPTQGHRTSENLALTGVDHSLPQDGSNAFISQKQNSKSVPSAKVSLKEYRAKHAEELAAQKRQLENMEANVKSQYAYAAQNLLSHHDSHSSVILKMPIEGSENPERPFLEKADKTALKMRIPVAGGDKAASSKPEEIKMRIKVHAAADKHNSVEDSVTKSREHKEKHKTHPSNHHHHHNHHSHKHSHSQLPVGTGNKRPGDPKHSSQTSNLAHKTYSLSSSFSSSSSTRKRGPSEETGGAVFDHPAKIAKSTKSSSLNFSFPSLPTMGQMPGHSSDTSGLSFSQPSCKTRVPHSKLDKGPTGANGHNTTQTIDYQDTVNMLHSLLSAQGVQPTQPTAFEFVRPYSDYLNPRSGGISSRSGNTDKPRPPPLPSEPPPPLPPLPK
Description: as §1, §2

SAPK3(h) = biological target: T4, SAPK3(h) (Homo sapiens, UniProt P53778)
T4 sequence (P53778 1-367): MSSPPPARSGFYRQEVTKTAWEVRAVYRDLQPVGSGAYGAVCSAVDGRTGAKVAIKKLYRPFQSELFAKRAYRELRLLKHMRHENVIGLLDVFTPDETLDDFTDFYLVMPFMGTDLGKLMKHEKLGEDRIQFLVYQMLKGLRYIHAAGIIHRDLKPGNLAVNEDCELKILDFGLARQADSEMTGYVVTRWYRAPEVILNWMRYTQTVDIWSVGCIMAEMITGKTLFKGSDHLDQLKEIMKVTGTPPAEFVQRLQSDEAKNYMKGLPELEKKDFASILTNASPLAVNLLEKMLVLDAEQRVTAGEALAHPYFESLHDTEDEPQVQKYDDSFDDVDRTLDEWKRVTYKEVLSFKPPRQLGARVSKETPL
Description: as §1, §2

PKBγ(h) = PKBγ(h) (Homo sapiens, UniProt Q9Y243)
Chain of PKBγ(h) (Q9Y243 whole entry): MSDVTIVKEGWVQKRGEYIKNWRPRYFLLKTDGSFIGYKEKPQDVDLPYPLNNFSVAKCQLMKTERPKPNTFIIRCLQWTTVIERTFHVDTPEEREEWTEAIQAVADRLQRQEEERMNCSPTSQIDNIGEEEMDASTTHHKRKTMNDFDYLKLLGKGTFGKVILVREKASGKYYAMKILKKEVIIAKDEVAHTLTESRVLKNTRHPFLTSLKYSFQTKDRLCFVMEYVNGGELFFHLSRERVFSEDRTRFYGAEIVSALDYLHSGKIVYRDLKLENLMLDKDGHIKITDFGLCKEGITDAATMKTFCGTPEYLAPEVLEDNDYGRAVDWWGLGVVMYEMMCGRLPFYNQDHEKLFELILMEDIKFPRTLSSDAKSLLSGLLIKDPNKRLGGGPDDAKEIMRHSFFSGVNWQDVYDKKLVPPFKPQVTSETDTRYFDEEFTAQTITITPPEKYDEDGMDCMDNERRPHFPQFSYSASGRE
Description: as §1, §2

Abl(T315I)(h) = Abl(T315I)(h) (Homo sapiens, UniProt P00519, T315I)
Description: as §1, §2

PAK5(h) = PAK5(h) (Homo sapiens, UniProt Q9P286)
Chain of PAK5(h) (Q9P286 whole entry): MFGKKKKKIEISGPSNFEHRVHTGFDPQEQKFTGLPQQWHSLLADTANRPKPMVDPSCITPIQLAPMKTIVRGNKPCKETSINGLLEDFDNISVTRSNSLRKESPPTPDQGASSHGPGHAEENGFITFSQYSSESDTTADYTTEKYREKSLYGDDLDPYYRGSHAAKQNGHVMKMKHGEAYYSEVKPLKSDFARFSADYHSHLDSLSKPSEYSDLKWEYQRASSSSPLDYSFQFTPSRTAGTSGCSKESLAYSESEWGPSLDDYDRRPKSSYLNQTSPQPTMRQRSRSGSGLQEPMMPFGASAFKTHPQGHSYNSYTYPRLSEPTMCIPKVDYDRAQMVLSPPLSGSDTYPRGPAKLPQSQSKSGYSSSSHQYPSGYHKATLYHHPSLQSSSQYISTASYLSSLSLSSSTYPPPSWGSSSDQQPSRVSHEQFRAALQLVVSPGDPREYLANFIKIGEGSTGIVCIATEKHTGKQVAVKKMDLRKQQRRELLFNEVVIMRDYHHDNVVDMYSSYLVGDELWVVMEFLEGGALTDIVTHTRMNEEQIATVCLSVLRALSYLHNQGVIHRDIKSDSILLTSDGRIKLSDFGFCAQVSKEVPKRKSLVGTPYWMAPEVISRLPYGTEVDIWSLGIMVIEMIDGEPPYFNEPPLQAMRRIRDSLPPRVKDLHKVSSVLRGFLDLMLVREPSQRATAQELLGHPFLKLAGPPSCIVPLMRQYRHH
Description: as §1, §2

KAFAKLAARLYRKALARQLGVAA [MMI-0400]
GCK(h) % activity (GCK(h)): 66%
Abl(h) % activity (Abl(h)): 84%
SAPK2b(h) % activity (SAPK2b(h)): 82%
EphB2(h) % activity (EphB2(h)): 22%
CDK3/cyclinE(h) % activity (CDK3/cyclinE(h)): 92%
LIMK1(h) % activity (LIMK1(h)): 92%
GSK3β(h) % activity (GSK3β(h)): 202%
CDK9/cyclin T1(h) % activity (CDK9/cyclin T1(h)): 235%
SAPK3(h) % activity (SAPK3(h)): 79%
PKBγ(h) % activity (PKBγ(h)): 41%

YARAAARQARAKALNRQLGVA (Mammalian) [MMI-0200]
GCK(h) % activity (GCK(h)): 99%
Abl(T315I)(h) % activity (Abl(T315I)(h)): 108%
SAPK2b(h) % activity (SAPK2b(h)): 95%
PAK5(h) % activity (PAK5(h)): 100%
EphB2(h) % activity (EphB2(h)): 128%
GSK3β(h) % activity (GSK3β(h)): 132%
SAPK3(h) % activity (SAPK3(h)): 97%

FAKLAARLYRKALARQLGVAA [MMI-0300]
GCK(h) % activity (GCK(h)): 70%
Abl(T315I)(h) % activity (Abl(T315I)(h)): 97%
Abl(h) % activity (Abl(h)): 69%
SAPK2b(h) % activity (SAPK2b(h)): 81%
PAK5(h) % activity (PAK5(h)): 110%
EphB2(h) % activity (EphB2(h)): 18%
CDK3/cyclinE(h) % activity (CDK3/cyclinE(h)): 94%
LIMK1(h) % activity (LIMK1(h)): 88%
GSK3β(h) % activity (GSK3β(h)): 205%
CDK9/cyclin T1(h) % activity (CDK9/cyclin T1(h)): 91%
SAPK3(h) % activity (SAPK3(h)): 84%
PKBγ(h) % activity (PKBγ(h)): 20%

HRRIKAWLKKIKALARQLGVAA (Mammalian) [MMI-0500]
GCK(h) % activity (GCK(h)): 30%
Abl(T315I)(h) % activity (Abl(T315I)(h)): 16%
Abl(h) % activity (Abl(h)): 16%
SAPK2b(h) % activity (SAPK2b(h)): 42%
PAK5(h) % activity (PAK5(h)): 125%
EphB2(h) % activity (EphB2(h)): 70%
CDK3/cyclinE(h) % activity (CDK3/cyclinE(h)): 8%
LIMK1(h) % activity (LIMK1(h)): 87%
GSK3β(h) % activity (GSK3β(h)): 238%
CDK9/cyclin T1(h) % activity (CDK9/cyclin T1(h)): 6%
SAPK3(h) % activity (SAPK3(h)): 24%
PKBγ(h) % activity (PKBγ(h)): 20%
